The data set concerns MS2 coat protein. The data set can be described thus: apparent KD of MS2 coat protein; designed switch direction (-1 OFF switch, 1 ON switch): -1; higher = weaker reporter binding. In a few lines:
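Designed RNA switches were transcribed on Illumina chips by stalled E. coli RNA polymerase and titrated with SNAP-549-labelled MS2 coat protein from 0.7 or 1.5 nM, doubling to 3 µM. Step length ran from 0.8–1.5 h at the lowest concentration to 10–20 min at the highest. The apparent KD is the median over clusters for each design, from curve-fitted normalised cluster fluorescence.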

Setting [1] is: Eterna round: R95, input ligand: microRNA oligo, concentration not stated.
The mark [2] stands for this setting: Eterna round: R95, input ligand: FMN 200 uM.
The mark [3] stands for this setting: Eterna round: R95, input ligand: none.
The mark [4] stands for this setting: input ligand: microRNA oligo, concentration not stated.

Turning to “CCGGAAAUGCAGGAUAUCGUAUCGGAUACGAUACGAGAAGGGUAUACAUGAGGAUCACCCAUGUGUCCUACCGG [Fiskers Ex 6 - 49] (puzzle: Exclusion 6)”, the “apparent KD of MS2 coat protein” value under setting [1] was 18.3 nM.
On to “CCGGAAAUGGAGGAUAUAGGAGUCGAUAGACACCUAGAAGGUCAGACAUGAGGAUCACCCAUGUGUCCUACCGG [Fiskers Ex 6 - 88] (puzzle: Exclusion 6)”, for which the “apparent KD of MS2 coat protein” value under setting [1] is 14.9 nM.
Turning to “CCGGAACAUGAGGAUCACCCAUGUCAGGAUAUGAAUAAAUCGUCGAUAGACGAUAAUCUCAGAAGGGACACCGG [Mat - Exclusion 1 - Eli Mod - D27] (Eterna round: R97, puzzle: Exclusion 1)”, the “apparent KD of MS2 coat protein” value (input ligand: FMN 200 uM) came to 24.5 nM and the “apparent KD of MS2 coat protein” value (input ligand: none) came out at 24.2 nM.
As for “CCGGAAUAGCAGGAUAUAGGAGUCGAUAGACACCUAGAAGGGCUGACAUGAGGAUCACCCAUGUGUCCUACCGG [Fiskers Ex 6 - 83] (puzzle: Exclusion 6)”, the “apparent KD of MS2 coat protein” value under setting [1] was 71.5 nM.
Regarding “CCGGAAUAGCAGGAUAUAGGAGUCGAUAGACACCUAGAAGGGUUGACAUGAGGAUCACCCAUGUGUCCUACCGG [Fiskers Ex 6 - 82] (puzzle: Exclusion 6)”, the “apparent KD of MS2 coat protein” value is 322 nM under setting [2], 247 nM under setting [1] and 519 nM under setting [3].
As to “CCGGAAUUGCAGGAUAUAGGAGUCGAUAGACACCUAGAAGGGCAGACAUGAGGAUCACCCAUGUGUCCUACCGG [Fiskers Ex 6 - 84] (puzzle: Exclusion 6)”, the “apparent KD of MS2 coat protein” value under setting [1] came to 17.4 nM.
On to “CCGGCAUGGUGCGGUAGUUGUACAACAUGAGGAUCACCCAUGUAGGAUAUGCGCGUGGUCACGCCGCAGAAGGACAACGUAUGG [Random, 25% A] (Eterna round: R96, puzzle: Exclusion NG 3)”, for which the “apparent KD of MS2 coat protein” value is 668 nM (input ligand: FMN 200 uM), 89.4 nM under setting [4] and 96 nM (input ligand: none).
Take “CCGGCGUCAGGAUAUCGUAGCAGGACAUUCAGUCGCGGCUAUGAGAAGGGACAUGAGGAUCACCCAUGUCCUCA [Eternabot (Original) Solution 22] (Eterna round: R97, puzzle: Exclusion 4)”: the “apparent KD of MS2 coat protein” value by setting is: (input ligand: FMN 200 uM) 29.5 nM; (input ligand: none) 21.5 nM.
“CCGGUUGGCGCAGGAUAUACAUGAGGAUCACCCAUGUUGAUGAGGAUCACCCAUCAGUUUUUGUUGUAGAAGGGUGGCCCGGCC (Eterna round: R96, puzzle: Exclusion NG 2)”: the “apparent KD of MS2 coat protein” value under setting [4] is 16.2 nM.
On to “CCGUCCCGCCCUGGGUGGGACAUGAGGAUCACCCAUGUGGGUUUUCUUUCUUUCACCCGGGCGGGCGGGCGGGCUGG [sensor,turn-off variant1(1)] (Eterna round: R97, puzzle: Sensor, turn-off variant 1)”, for which the “apparent KD of MS2 coat protein” value turned out to be 20.4 nM (input ligand: FMN 200 uM) and 54.8 nM (input ligand: none).
Consider “CCUAGUGUCGGAGGAUAUCCUACACAAACCUUAGGAGAAGGCCGACAUGAGGAUCACCCAUGUAAAACCUAAACCUAAAAUCAA [Raesusbi] (Eterna round: R96, puzzle: Exclusion NG 1)”, for which the “apparent KD of MS2 coat protein” value runs as follows: (input ligand: FMN 200 uM) 48.9 nM; under setting [4], 12.8 nM; (input ligand: none) 15.2 nM.
Turning to “CCUAUGUGAGGAUAUGUCUGGUCUUCUUUUAUUUUUUACAGACAGAAGGCACAUGAGGAUCACCCAUGUCAGAC [Ex4 - 3 - 48] (puzzle: Exclusion 4)”, under setting [1], the “apparent KD of MS2 coat protein” value was determined as 23 nM.
On to “CCUCAACAGUAGGAUAUCAUCAAACUAUUGUGAUGAGAAGGACUGACAUGAGGAUCACCCAUGUUGACGUGAUA [Exclusion 6 - 6:b] (puzzle: Exclusion 6)”, for which the “apparent KD of MS2 coat protein” value under setting [1] stood at 47.8 nM.
Same read-out and setting: the result for “CCUCCACAUGAGGAUCACCCAUGUCAGGAUAUCGUGUGUUUUUUUUCGGUCGCGCGUGCGAGAAGGGACGUCUU (puzzle: Exclusion 1)” reads 23.7 nM.
Take “CCUCCGUAUUAGGAUAUCGUCCCGGAAACGGGACGAGAAGGAAUGACAUGAGGAUCACCCAUGUUAACGUGAUG [Mod of Brourd 20 - Jieux - Exclusion 6] (Eterna round: R97, puzzle: Exclusion 6)”: the “apparent KD of MS2 coat protein” value is 48.9 nM (input ligand: FMN 200 uM) and 20.7 nM (input ligand: none).
Regarding “CCUCUACAUGAGGAUCACCCAUGUGAGGAUAUAAGAUUGCGAAUUCCGCACUACGGUCUUAGAAGGCGCGUGGA [Riarve] (Eterna round: R96, puzzle: Exclusion 1)”, the “apparent KD of MS2 coat protein” value (input ligand: FMN 200 uM) was 31.3 nM, the “apparent KD of MS2 coat protein” value under setting [4] is 14.8 nM and the “apparent KD of MS2 coat protein” value (input ligand: none) was determined as 20.3 nM.
On to “CCUCUACAUGAGGAUCACCCAUGUGAGGAUAUAAGAUUGCGAAUUCCGCACUACGGUCUUAGAAGGCGCGUGGA [Riarve] (puzzle: Exclusion 1)”, for which the “apparent KD of MS2 coat protein” value under setting [1] worked out at 15.7 nM.
As to “CCUCUACAUGAGGAUCACCCAUGUGAGGAUAUCAAAGUCAGAGCGGCUCUCUGACUCAUGAGAAGGUGCAUGAA [EX1 A.13] (Eterna round: R97, puzzle: Exclusion 1)”, the “apparent KD of MS2 coat protein” value (input ligand: FMN 200 uM) came out at 30.6 nM and the “apparent KD of MS2 coat protein” value (input ligand: none) is 21.6 nM.
The corresponding values for “CCUCUACAUGAGGAUCACCCAUGUGAGGAUAUCAGUGCAAAGGGCACGUAUUAAAACGUGAGAAGGCACAUGGG [EX1 A.17] (Eterna round: R97, puzzle: Exclusion 1)” are 88.9 nM and 135 nM.
On to “CCUCUUGGGCAAGGAUAUCCUGUGCGGUUCCGGCUCGUGUCUGUCACAUGAGGAUCACCCAUGUGGGAGAAGGUGCCUGCGGUC [Design 80] (Eterna round: R96, puzzle: Exclusion NG 2)”, for which the “apparent KD of MS2 coat protein” value by setting is: (input ligand: FMN 200 uM) 13 nM; under setting [4], 10.7 nM; (input ligand: none) 16.3 nM.
For the sequence “CCUGCGUGAGGAUAUACAUGAGGAUCACCCAUGUCACAAUUAACACACUCCGCCUCACGUAGAAGGCACGCAUA [Tienarra] (Eterna round: R97, puzzle: Exclusion 3)”, the “apparent KD of MS2 coat protein” value was found to be 23.1 nM (input ligand: FMN 200 uM) and 13.6 nM (input ligand: none).
As for “CCUGUGUAAGGAUAUGACAAUGGUAUCUUCGGAUACCAUUGUCAGAAGGUACAUGAGGAUCACCCAUGUAACAC [Ex4-3: 13] (puzzle: Exclusion 4)”, the “apparent KD of MS2 coat protein” value under setting [1] was found to be 14.8 nM.
In the case of “CCUUAGCGAGGAUAUACAUGAGGAUCACCCAUGUGAUCCUAAGGCUGAUCAAGCCUAUGUAGAAGGCGCAAAUC [salish99_ex3_r4_003] (Eterna round: R97, puzzle: Exclusion 3)”, the “apparent KD of MS2 coat protein” value by setting is: (input ligand: FMN 200 uM) 180 nM; (input ligand: none) 442 nM.
The corresponding values for “CCUUAGUCACAGGAUAUGCUCAUCUAAUGAUGAGCAGAAGGGUGAACAUGAGGAUCACCCAUGUUUACCAGGGU [Omei Ex6 E4] (Eterna round: R97, puzzle: Exclusion 6)” are 247 nM and 37.1 nM.
With “CCUUUGUCAGGAUAUCAGAAAACGCUCGUAGGGAGCGCAAAUGAGAAGGGACAUGAGGAUCACCCAUGUAAAGA [Edmareen] (puzzle: Exclusion 4)”, the “apparent KD of MS2 coat protein” value under setting [2] turned out to be 219 nM, the “apparent KD of MS2 coat protein” value under setting [1] was found to be 45.1 nM and the “apparent KD of MS2 coat protein” value under setting [3] was 60.3 nM.
As for “CCUUUGUCAGGAUAUCGAAAAGGGAGGCCAAAAGCCUCCGGUGAGAAGGGACAUGAGGAUCACCCAUGUGAAAA [Usleaor] (puzzle: Exclusion 4)”, the “apparent KD of MS2 coat protein” value under setting [1] stood at 37.9 nM.
With “CGAGCUGGAGUGAGGAUAUCGUGUUCGAAAGAACGUGAGAAGGCACAUGAGGAUCACCCAUGUGAUUCAGCUCG [Omei Ex4B A4] (Eterna round: R97, puzzle: Brourd's mod of Exclusion 4)”, the “apparent KD of MS2 coat protein” value by setting is: (input ligand: FMN 200 uM) 28 nM; (input ligand: none) 20.1 nM.
Regarding “CGAGGUAGAGGAUAUACGUGGAAAUAGAUUCAUGUUAAUCUACAUGAGGAUCACCCAUGUAGAAGGCUAUAGCG [JR_Ex2_Sub075] (Eterna round: R97, puzzle: Exclusion 2)”, the “apparent KD of MS2 coat protein” value by setting is: (input ligand: FMN 200 uM) 80 nM; (input ligand: none) 24.9 nM.
As for “CGAGUGUAAGGAUAUUCGGCGCCAGGGAACAACCUAGCGUAGAAGAAGGUACAUGAGGAUCACCCAUGUGGUUA [Riatees] (puzzle: Exclusion 4)”, the “apparent KD of MS2 coat protein” value under setting [1] is 151 nM.
As to “CGAUAAAGCUGAGGAUAUGAGAAUAGAAAGAAAUCAGAAGGCAGACAUGAGGAUCACCCAUGUGAGUUCUCGAGAUUACAUGGU [Prohibition 46 - Jieux - Exclusion NG 1] (Eterna round: R96, puzzle: Exclusion NG 1)”, under setting [4], the “apparent KD of MS2 coat protein” value is 112 nM.
As to “CGAUGCUCGUGCCCACAUGAGGAUCACCCAUGUCGAGUCAGCGAGGAUAUCGGUGGCACAUAGUACGAGAAGGCGCGGACCUGA [Ex NG3 #18] (Eterna round: R96, puzzle: Exclusion NG 3)”, the “apparent KD of MS2 coat protein” value (input ligand: FMN 200 uM) was found to be 17.7 nM, the “apparent KD of MS2 coat protein” value under setting [4] was found to be 11.5 nM and the “apparent KD of MS2 coat protein” value (input ligand: none) was 17 nM.
For “CGAUGUUAUGUCAGGAUAUGCAUUGCGAAAGCAAUGCAGAAGGGACAUGAGGAUCACCCAUGUCCUAACCAUCG [Omei A 4] (puzzle: Brourd's mod of Exclusion 4)”, the “apparent KD of MS2 coat protein” value under setting [1] turned out to be 11.1 nM.
Take “CGAUGUUGUGUCAGGAUAUGCGUUGCGAAAGCAAUGUAGAAGGGACAUGAGGAUCACCCAUGUUCUAACCAUCG [Omei A 9] (puzzle: Brourd's mod of Exclusion 4)”: the “apparent KD of MS2 coat protein” value under setting [1] was 11.2 nM.
As for “CGCUGGACAGGAUAUGUUCUUGAGCACUUGAGGAUCACCCAAGUCAUCAAGAACUCAGGCACAGAAGGGUUUAUGG [salish99_ex5_r4_016] (Eterna round: R97, puzzle: Exclusion 5)”, the “apparent KD of MS2 coat protein” value came to 24.6 nM (input ligand: FMN 200 uM) and 13.4 nM (input ligand: none).
For “CGCUGGACAGGAUAUGUUCUUGGGCACUUGAGGAUCACCCAAGUCAUCAAGAAAACAGGCACAGAAGGGUUUAUGG [salish99_ex5_r4_020] (Eterna round: R97, puzzle: Exclusion 5)” the same measures were 32.1 nM and 24.1 nM.

(Values after the supplement of paper PMC9170038.)
